The target of this test is factor Xa.

Ser-(Glu15-Thr161)-EPI, sequence (chain): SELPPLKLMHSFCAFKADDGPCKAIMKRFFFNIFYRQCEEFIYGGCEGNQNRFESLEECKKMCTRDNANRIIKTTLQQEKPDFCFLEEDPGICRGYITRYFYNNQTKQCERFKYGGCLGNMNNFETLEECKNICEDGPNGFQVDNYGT
native extrinsic pathway inhibitor (EPI), entire EPI protein expressed from pCMVEPIhGH, sequence (chain): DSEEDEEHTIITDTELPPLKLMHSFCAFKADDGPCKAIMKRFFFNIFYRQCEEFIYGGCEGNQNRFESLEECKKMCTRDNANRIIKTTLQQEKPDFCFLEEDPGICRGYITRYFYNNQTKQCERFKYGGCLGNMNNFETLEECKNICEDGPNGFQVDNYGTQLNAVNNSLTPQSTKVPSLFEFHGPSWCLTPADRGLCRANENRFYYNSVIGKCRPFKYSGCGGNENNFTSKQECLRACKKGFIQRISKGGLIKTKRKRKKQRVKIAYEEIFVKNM
Ser-(Thr88-Thr161)-EPI, sequence (chain): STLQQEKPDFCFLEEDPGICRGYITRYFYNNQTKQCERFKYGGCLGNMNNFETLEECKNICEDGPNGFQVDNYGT

On to Ser-(Glu15-Thr161)-EPI, for which the anti-Xa activity [U/ml], chromogenic assay (FXa, substrate S2222) was determined as 5.6 U/ml.
Substance Ser-(Thr88-Thr161)-EPI gave an anti-Xa activity [U/ml], chromogenic assay (FXa, substrate S2222) of 0.15 U/ml.
The value for “native extrinsic pathway inhibitor (EPI), entire EPI protein expressed from pCMVEPIhGH” was 7.6 U/ml.

The record behind these values is patent US5312736.
